One assay has as its target T1, P60A (C-terminal Lys-biotin).
T1 construct: alanine-scan peptide; also called Biotin PSGL-1(42-62) P60A peptide; 60P
T1 peptide: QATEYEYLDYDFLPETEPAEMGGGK
As to the kind of experiment: alanine-scan ELISA, streptavidin-immobilized biotin peptide [cont.]. In general terms: In an ELISA, binding on a coated surface is turned into a signal by an enzyme label.

In a further assay the target is T2, E47A (C-terminal Lys-biotin).
T2 construct: alanine-scan peptide; also called Biotin PSGL-1(42-62) E47A peptide; 47E
T2 peptide: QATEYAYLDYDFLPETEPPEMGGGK
The description is as above.

Another assay has as its target T3, E61A (C-terminal Lys-biotin).
T3 construct: alanine-scan peptide; also called Biotin PSGL-1(42-62) E61A peptide; 61E
T3 peptide: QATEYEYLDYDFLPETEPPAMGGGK
Described as above.

Assay [1] concerns the target T4, Biotin PSGL-1(42-62) L49A peptide (C-terminal Lys-biotin).
T4 peptide: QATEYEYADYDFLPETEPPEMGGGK
The assay is described as above.

In assay [2] the target is T5, Biotin PSGL-1(42-62) E45A peptide (C-terminal Lys-biotin).
T5 peptide: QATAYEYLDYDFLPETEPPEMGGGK
The description is as above.

Assay [3] has as its target T6, Biotin PSGL-1(42-62) Y46A peptide (C-terminal Lys-biotin).
T6 peptide: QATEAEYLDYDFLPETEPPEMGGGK
The assay is described as above.

Assay [4] addresses T7, Biotin PSGL-1(42-62) E56A peptide (C-terminal Lys-biotin).
T7 peptide: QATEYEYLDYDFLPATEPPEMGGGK
Described as above.

For another assay, the target named is T8, Q42A (C-terminal Lys-biotin).
T8 construct: alanine-scan peptide; also called Biotin PSGL-1(42-62) Q42A peptide; 42Q
T8 peptide: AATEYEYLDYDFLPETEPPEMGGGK
Described as above.

Another assay deals with T9, T57A (C-terminal Lys-biotin).
T9 construct: alanine-scan peptide; also called Biotin PSGL-1(42-62) T57A peptide; 57T
T9 peptide: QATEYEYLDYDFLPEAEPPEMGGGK
The assay is described as above.

A further assay addresses T10, E58A (C-terminal Lys-biotin).
T10 construct: alanine-scan peptide; also called Biotin PSGL-1(42-62) E58A peptide; 58E
T10 peptide: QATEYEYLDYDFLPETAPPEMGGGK
The description is as above.

Assay [5] concerns the target T11, Biotin PSGL-1(42-62) F53A peptide (C-terminal Lys-biotin).
T11 peptide: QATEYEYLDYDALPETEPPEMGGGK
The description is as above.

The target of assay [6] is T12, Biotin PSGL-1(42-62) D50A peptide (C-terminal Lys-biotin).
T12 peptide: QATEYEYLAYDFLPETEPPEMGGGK
The assay is described as above.

For the next assay, the target named is T13, P59A (C-terminal Lys-biotin).
T13 construct: alanine-scan peptide; also called Biotin PSGL-1(42-62) P59A peptide; 59P
T13 peptide: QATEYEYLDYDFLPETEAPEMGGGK
Described as above.

The target of the next assay is T14, T44A (C-terminal Lys-biotin).
T14 construct: alanine-scan peptide; also called Biotin PSGL-1(42-62) T44A peptide; 44T
T14 peptide: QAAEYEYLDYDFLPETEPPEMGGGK
The description is as above.

A further assay concerns the target T15, Y48A (C-terminal Lys-biotin).
T15 construct: alanine-scan peptide; also called Biotin PSGL-1(42-62) Y48A peptide; 48Y
T15 peptide: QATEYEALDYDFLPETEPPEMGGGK
Described as above.

The target of assay [7] is T4, Biotin PSGL-1(42-62) L49A peptide. The assay is described as follows: alanine-scan ELISA, streptavidin-immobilized biotin peptide.
The target of assay [8] is T7, Biotin PSGL-1(42-62) E56A peptide. Described as above.
In assay [9] the target is T16, Biotin PSGL-1(42-62) L54A peptide (C-terminal Lys-biotin).
T16 peptide: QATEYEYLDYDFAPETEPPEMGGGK
Described as above.

The target of assay [10] is T17, Biotin PSGL-1(42-62) P55A peptide (C-terminal Lys-biotin).
T17 peptide: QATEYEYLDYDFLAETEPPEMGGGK
The description is as above.

Assay [11] addresses T18, Biotin Y46,48,51(SO3) PSGL-1(42-62) peptide (human, sulfotyrosine at Y46, Y48 and Y51; C-terminal Lys-biotin).
T18 construct: also called fully sulfated N-terminal PSGL-1 peptide
T18 peptide: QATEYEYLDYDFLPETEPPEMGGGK
As to the kind of experiment: ELISA, plate-bound mAb captures biotin 3 x sY peptide. The method, then:
A typical ELISA for N-terminal PSGL-1 reactive humanized mAbs binding to Y_{46,48,51}(SO₃) PSGL-1₍₄₂₋₆₂₎ involved coating high binding half-well plates (Corning Cat. #3690) with 3 ug/mL/25 ul per well of the mAbs or with an isotype hG4 control in PBS, pH 7.4, overnight at 4° C. […] Biotinylated Y_{46,48,51}(SO₃) PSGL-1₍₄₂₋₆₂₎ was added (25 ul per well) in duplicate at 2.8 uM in assay buffer (blocking buffer containing 0.05% tween 20) and serially diluted into test and control (just blocked) wells, and the plate incubated for 45 min at 37° C. The plate was washed ×3 and an appropriate HRP-conjugated streptavidin was added (25 ul per well; Jackson Immunoresearch, Cat. #016-030-084) and the plate was incubated for 45 min at 37° C. […] For each antibody, an EC50 value was determined from sigmoidal fitted peptide titration curve.

The target in assay [12] is T11, Biotin PSGL-1(42-62) F53A peptide. As to the kind of experiment: alanine-scan ELISA, streptavidin-immobilized biotin peptide.
For assay [13], the target named is T12, Biotin PSGL-1(42-62) D50A peptide. The assay is described as above.

B1: 9F9 (antibody, V domains shown)
VH: EVQLVETGGGLVQPKGSLKLSCAASGFTFNTNAMNWVRQAPGKGLEWVARIRSKSNNYATYYADSVKDRFTISRDDTQSMIYLQMNNLKTEDTGMYYCVRGGSYWYFDVWGAGTTVTVSS
VL: DVLMTQTPLSLPVSLGDQASISCRSSQSIVNSNGNTYLEWYLQKPGQSPKLLIYKVSNRFSGVPDRFSGSGSGTDFTLKISRVEAEDLGVYYCFQGSHVPWTFGGGTKLEIK
notes: Control anti-PSGL-1 mAb, recombinant; only variable domains given; also called 9F6
Consider B1, for which the binding result (with P60A; with E47A; in the assay with E61A; in assay [1]; in assay [2]; in assay [3]) was “binds” each time. Further, the binding result (in assay [4]; in the assay with Q42A; with T57A; in the assay with E58A; in assay [5]; in [6]) was “binds” each time. Also, the binding result in the assay with P59A, in the assay with T44A and in the assay with Y48A was “binds” in each case.

B2: 18F02 (antibody, V domains shown)
VH: QVQLQQPGAELVKPGASVKLSCKASGYTFTSYWMHWVKQRPGQGLEWIGMIHPNSGRTNYNEKFKSKATLTVDKSSSTAYMQLSSLTSEDSAVYYCARSDYWGQGTTLTVSS
VL: DIVMTQAAFSNPVTLGTSASISCRSSKSLLHSDGITYLYWFLQRPGQSPQLLIYRMSNLASGVPDRFSGSGSGTDFTLRISRVEAEDVGVYYCAQMLEFPRTFGGGTKLEIK
notes: From mouse immunisation; only variable domains given
With B2, the binding result in assay [7], in assay [8], in assay [9] and in assay [10] was “binds” in each case. For the same molecule, in [11], the EC50 stood at 70 nM.

B3: 43B6 (antibody, V domains shown)
VH: EVQLQQSGPDLVKPGALVKISCKASGYSFTAYYIHWVKQSHGKSLEWIGRVNPNTGGTSYNPKFKGKAILNVDKSSSTAYMELRSLTSEDSAVYYCARSGSPYYRYDDWGQGTTLTVSS
VL: ENVLTQSPAIMSASPGEKVTMTCRASSTVNSTYLHWFQQKSGASPKLWIYGSSNLASGVPARFSGSGSGTSYSLTISSVEAEDAATYYCQQYSGYPLTFGAGTTLELK
notes: Control anti-PSGL-1 mAb, recombinant; only variable domains given; also called 43B3
On to B3, for which the binding result in assay [12] and in assay [13] was “binds” each time.

As a reminder, the EC50 is the concentration giving half of the maximal effect.
